The target in this assay is actin filament. In words: cell-based or functional assay.

These results are taken from patent US20130007915A1.

The substance “Flag-chimera XI protein (chimeric myosin XI: Chara corallina myosin XI motor domain on the A. thaliana MYA2 backbone, FLAG-tagged)” showed a sliding velocity (in vitro sliding filament assay) of 16.2 µm/sec.
In the case of “wild-type A. thaliana myosin XI-2 (MYA2), expressed from the Flag-MYA2 XI gene (from UniProt Q9LKB9 1-1505)” it was 7 µm/sec.
